# Measurements published in patent US11827699 (dated 2023).
# Residue numbers refer to the chain shown, from its start.
# T1: human FcγRIIa R131 (human, UniProt P12318)
# T1 chain: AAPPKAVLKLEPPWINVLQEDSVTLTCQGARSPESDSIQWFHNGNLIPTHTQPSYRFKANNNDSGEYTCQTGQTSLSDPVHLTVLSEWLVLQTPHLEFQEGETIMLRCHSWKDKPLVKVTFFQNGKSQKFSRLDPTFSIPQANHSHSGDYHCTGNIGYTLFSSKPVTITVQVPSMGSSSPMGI
# T2: human FcγRIIa H131 (human, UniProt P12318)
# T2 chain: T1 chain with R132H
# T3: human FcγRIa (human, UniProt P12314)
# T3 chain: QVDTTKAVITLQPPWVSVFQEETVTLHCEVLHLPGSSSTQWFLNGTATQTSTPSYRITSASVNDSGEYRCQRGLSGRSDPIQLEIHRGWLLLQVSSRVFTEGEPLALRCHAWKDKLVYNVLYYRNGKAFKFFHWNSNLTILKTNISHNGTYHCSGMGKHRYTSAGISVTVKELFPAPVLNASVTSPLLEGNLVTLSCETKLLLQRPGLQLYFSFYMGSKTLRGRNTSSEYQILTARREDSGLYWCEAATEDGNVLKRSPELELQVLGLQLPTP
# T4: human FcγRIIb (human, UniProt P31994)
# T4 chain: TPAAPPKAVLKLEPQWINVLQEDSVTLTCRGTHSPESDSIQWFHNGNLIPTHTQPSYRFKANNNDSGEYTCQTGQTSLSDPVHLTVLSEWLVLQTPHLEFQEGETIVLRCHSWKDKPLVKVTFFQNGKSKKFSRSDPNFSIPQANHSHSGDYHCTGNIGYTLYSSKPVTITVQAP
# B1: IL6R-BP481 (antibody)
# chain 1: QVQLQESGPGLVKPSETLSLTCAVSGHSISHDHAWSWVRQPPGEGLEWIGFISYSGITNYNPSLQGRVTISRDNSKNTLYLQMNSLRAEDTAVYYCARSLARTTAMDYWGEGTLVTVSSASTKGPSVFPLAPSSKSTSGGTAALGCLVKDYFPEPVTVSWNSGALTSGVHTFPAVLQSSGLYSLSSVVTVPSSSLGTQTYICNVNHKPSNTKVDKKVEPKSCDKTHTCPPCPAPDLLGDDSVFLFPPKPKDTLMISRTPEVTCVVIDVAEEDGEVKFNWYVDGVEVHNAKTKPREEQYNSTYRVVSVLTVLHQDWLNGKEYKCKVSNKALPAPIEKTISKAKGQPREPQVYTLPPSRDELTKNQVSLTCLVKGFYPSDIAVEWESNGQPENNYKTTPPVLDSDGSFFLYSKLTVDKSRWQQGNVFSCSVMHEALHNHYTQESLSLSP
# chain 2: not shown
# B2: IL6R-BP505 (antibody)
# chain 1: B1 chain 1 with E274D
# chain 2: not shown
# B3: IL6R-BP491 (antibody)
# chain 1: B1 chain 1 with D235E, Y298D, A332R
# chain 2: not shown
# B4: IL6R-BP496 (antibody)
# chain 1: B1 chain 1 with Y298D
# chain 2: not shown
# B5: IL6R-BP507 (antibody)
# chain 1: B1 chain 1 with E274P, A332R
# chain 2: not shown
# B6: IL6R-BP445 (antibody)
# chain 1: B1 chain 1 with A332R
# chain 2: not shown
# B7: IL6R-BP503 (antibody)
# chain 1: B1 chain 1 with Y298D, A329G, A332R, P398M
# chain 2: not shown
# B8: IL6R-BP499 (antibody)
# chain 1: B1 chain 1 with Y298D, A332R, P398L
# chain 2: not shown
# B9: IL6R-BP511 (antibody)
# chain 1: B1 chain 1 with D235E, E274P, Y298D, A332R
# chain 2: not shown
# B10: IL6R-BP428 (antibody)
# chain 1: B1 chain 1 with I266V, A269G, A332R
# chain 2: not shown
# B11: IL6R-BP488 (antibody)
# chain 1: B1 chain 1 with Y298D, A332R
# chain 2: not shown
# B12: IL6R-BP264 (antibody)
# chain 1: B1 chain 1 with I266V, A269S, Y298D, A332R
# chain 2: not shown
# B13: IL6R-BP506 (antibody)
# chain 1: B1 chain 1 with E274P, Y298D, A332R
# chain 2: not shown
# B14: IL6R-BP480 (antibody)
# chain 1: B1 chain 1 with I266V, V268L, A269S, E271D
# chain 2: not shown
# B15: IL6R-BP262 (antibody)
# chain 1: B1 chain 1 with D235E, I266V, A269S
# chain 2: not shown
# B16: IL6R-BP490 (antibody)
# chain 1: B1 chain 1 with D235E, A332R
# chain 2: not shown
# B17: IL6R-BP484 (antibody)
# chain 1: B1 chain 1 with I266V, E271D
# chain 2: not shown
# B18: IL6R-BP483 (antibody)
# chain 1: B1 chain 1 with I266V, V268L
# chain 2: not shown
# B19: IL6R-BP504 (antibody)
# chain 1: B1 chain 1 with E274P
# chain 2: not shown
# B20: IL6R-BP489 (antibody)
# chain 1: B1 chain 1 with Y298D, A332R, P398M
# chain 2: not shown
# B21: IL6R-BP502 (antibody)
# chain 1: B1 chain 1 with Y298D, A329G, A332R
# chain 2: not shown
# B22: IL6R-BP438 (antibody)
# chain 1: B1 chain 1 with I266V, A332R, I334T
# chain 2: not shown
# B23: IL6R-BP498 (antibody)
# chain 1: B1 chain 1 with A332R, P398L
# chain 2: not shown
# B24: IL6R-BP479 (antibody)
# chain 1: B1 chain 1 with V268L
# chain 2: not shown
# B25: IL6R-BP493 (antibody)
# chain 1: B1 chain 1 with D235E, D239G, Y298D
# chain 2: not shown
# B26: IL6R-BP268 (antibody)
# chain 1: B1 chain 1 with I266V, A269S, Y298D
# chain 2: not shown
# B27: IL6R-BP430 (antibody)
# chain 1: B1 chain 1 with I266V, V268L, A269G, A332R
# chain 2: not shown
# B28: IL6R-BP423 (antibody)
# chain 1: B1 chain 1 with I266V, A332R
# chain 2: not shown
# B29: IL6R-BP426 (antibody)
# chain 1: B1 chain 1 with I266V, E271D, A332R
# chain 2: not shown
# B30: IL6R-BP510 (antibody)
# chain 1: B1 chain 1 with D235E, E274P, A332R
# chain 2: not shown
# B31: IL6R-BP266 (antibody)
# chain 1: B1 chain 1 with I266V, A269S, A332R
# chain 2: not shown
# B32: IL6R-BP501 (antibody)
# chain 1: B1 chain 1 with D235E
# chain 2: not shown
# B33: IL6R-BP495 (antibody)
# chain 1: B1 chain 1 with D235E, I266V, A269G, Y298D, A332R
# chain 2: not shown
# B34: IL6R-BP435 (antibody)
# chain 1: B1 chain 1 with I266V, A269S, E270D, Y298D, K328A, A332R, I334T
# chain 2: not shown
# B35: IL6R-BP436 (antibody)
# chain 1: B1 chain 1 with I266V, Y298D, A332R, I334T
# chain 2: not shown
# Target: T1, human FcγRIIa R131
# Experiment: SPR
row,Kd [nM],Binder
1,400,B1
2,430,B2
3,120,B3
4,470,B4
5,100,B5
6,80,B6
7,57,B7
8,49,B8
9,180,B9
10,390,B10
11,74,B11
12,350,B12
13,120,B13
14,6300,B14
15,2000,B15
16,110,B16
17,780,B17
18,1300,B18
19,450,B19
20,43,B20
21,110,B21
22,180,B22
23,51,B23
24,900,B24

# Target: T2, human FcγRIIa H131
# Experiment: SPR
row,Kd [nM],Binder
1,19000,B25
2,21000,B26
3,6800,B1
4,38000,B27
5,2000,B28
6,11000,B2
7,2200,B3
8,3700,B4
9,19000,B29
10,860,B7
11,1000,B8
12,4300,B9
13,4000,B30
14,32000,B10
15,1600,B11
16,2800,B12
17,13000,B31
18,21000,B14
19,45000,B15
20,11000,B17
21,18000,B18
22,16000,B19
23,14000,B32
24,870,B20
25,1300,B21
26,1600,B22
27,930,B23
28,12000,B33
29,15000,B24

# Target: T3, human FcγRIa
# Experiment: SPR
row,Kd [nM],Binder
1,0.82,B25
2,4.5,B26
3,1,B1
4,1,B34
5,1.1,B2
6,5.3,B3
7,1.2,B4
8,2.6,B5
9,2,B6
10,1,B29
11,1.2,B7
12,1.2,B8
13,6,B9
14,6,B30
15,2.2,B11
16,7.4,B12
17,3.1,B13
18,10,B15
19,4.5,B16
20,0.82,B17
21,1.3,B18
22,1.4,B19
23,2.1,B32
24,1.3,B20
25,2.1,B21
26,1.3,B23
27,8.3,B33
28,5.3,B24

# Target: human FcγRIIIa V158 (human, UniProt P08637)
# Sequence (P08637 17-208 F176V): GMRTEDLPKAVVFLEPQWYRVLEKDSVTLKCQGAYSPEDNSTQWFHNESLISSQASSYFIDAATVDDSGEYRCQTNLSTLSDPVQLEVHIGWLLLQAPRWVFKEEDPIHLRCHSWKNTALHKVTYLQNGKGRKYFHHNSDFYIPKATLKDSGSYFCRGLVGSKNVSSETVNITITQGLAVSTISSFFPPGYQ
# Experiment: SPR
row,Kd [nM],Binder
1,35000,B25
2,28000,B26
3,24000,B1
4,38000,B2
5,21000,B3
6,30000,B4
7,26000,B5
8,23000,B35
9,24000,B6
10,21000,B7
11,12000,B8
12,71000,B9
13,25000,B30
14,20000,B11
15,26000,B12
16,55000,B13
17,40000,B31
18,46000,B14
19,56000,B15
20,23000,B16
21,25000,B17
22,25000,B18
23,34000,B19
24,19000,B32
25,12000,B20
26,24000,B21
27,10000,B23
28,33000,B33
29,40000,B24

# Target: T4, human FcγRIIb
# Experiment: SPR
row,Kd [nM],Binder
1,21,B25
2,92,B26
3,19,B1
4,21,B2
5,3,B3
6,18,B4
7,2.9,B5
8,2.6,B6
9,1.7,B7
10,1.5,B8
11,3.5,B9
12,3.8,B30
13,1.9,B11
14,3.4,B13
15,200,B14
16,120,B15
17,2.4,B16
18,46,B17
19,78,B18
20,24,B19
21,25,B32
22,1,B20
23,3.7,B21
24,1.7,B23
25,9.7,B33
26,56,B24
